In patent US20160002357A1 (Pfizer, published 2016):

What follows are binders tested against T1, human P-cadherin, cell surface expressed (human, UniProt P22223 108-829) (assay: cell-based or functional assay).
T1 sequence (P22223 108-829): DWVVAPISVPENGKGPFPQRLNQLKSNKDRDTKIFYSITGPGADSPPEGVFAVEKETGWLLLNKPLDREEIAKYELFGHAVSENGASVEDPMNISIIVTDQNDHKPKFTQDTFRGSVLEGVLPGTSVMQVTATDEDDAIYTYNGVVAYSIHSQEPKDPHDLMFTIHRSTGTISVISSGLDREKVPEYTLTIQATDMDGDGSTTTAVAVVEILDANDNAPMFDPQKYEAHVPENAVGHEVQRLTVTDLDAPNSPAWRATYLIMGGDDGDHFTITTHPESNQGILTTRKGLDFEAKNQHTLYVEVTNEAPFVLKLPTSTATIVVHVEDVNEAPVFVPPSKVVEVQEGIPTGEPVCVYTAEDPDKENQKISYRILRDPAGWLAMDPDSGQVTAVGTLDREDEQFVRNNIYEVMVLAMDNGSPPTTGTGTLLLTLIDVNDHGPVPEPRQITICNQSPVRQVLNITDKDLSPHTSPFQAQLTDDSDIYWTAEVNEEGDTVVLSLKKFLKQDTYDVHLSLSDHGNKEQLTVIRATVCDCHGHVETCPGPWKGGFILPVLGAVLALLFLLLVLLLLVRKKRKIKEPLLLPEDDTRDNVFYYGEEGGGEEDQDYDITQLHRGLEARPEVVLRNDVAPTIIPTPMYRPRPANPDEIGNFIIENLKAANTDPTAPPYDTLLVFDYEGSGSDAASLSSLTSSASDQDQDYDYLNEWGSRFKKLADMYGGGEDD

Row | Binder | T cell directed cytotoxicity EC50, CHO-CDh3 (24 h), LDH release, human PBMC E:T 30:1 | T cell directed cytotoxicity EC50, H1650 (24 h), LDH release, human PBMC E:T 30:1 | T cell directed cytotoxicity EC50, H1650 (40 h), LDH release, human PBMC E:T 30:1
1 | 33 EK-DART (P-CAD 33 x CD3-2) (bispecific antibody) chain 1: QSVLTQPPSVSAAPGQKVTISCSGSSSNIGNNYVSWYQQLPGTAPKLLIYDNNKRPSGIPDRFSGSKSGTSATLGITGLQTGDEADYYCGTWDSSLSAYVFGTGTKVTVLGGGSGGGGEVQLVESGGGLVQPGGSLRLSCAASGFTFNTYAMNWVRQAPGKGLEWVARIRSKYNNYATYYADSVKDRFTISRDDSKNSLYLQMNSLKTEDTAVYYCVRHGNFGNSYVSWFAYWGQGTLVTVSSGGCGGGKVAALKEKVAALKEKVAALKEKVAALKE chain 2: QAVVTQEPSLTVSPGGTVTLTCRSSTGAVTTSNYANWVQQKPGQAPRGLIGGTNKRAPWTPARFSGSLLGGKAALTITGAQAEDEADYYCALWYSNLWVFGGGTKLTVLGGGGSGGGGQMQLVQSGAEVKKPGASVKVSCKASGYTFTSYGISWVRQAPGQGLEWMGWISAYNGNTNYAQKLQGRVTMTTDTSTSTAYMELRSLRSDDTAVYYCALIGSGVAFDIWGQGTMVTVSSGGCGGGEVAALEKEVAALEKEVAALEKEVAALEK | 309 pM | 4100 pM | 1120 pM

Biological target: T1, human P-cadherin, cell surface expressed
Experiment: cell-based or functional assay
Remark: another data set of the same source

Row | Binder | T cell directed cytotoxicity EC50, H1650 LDH 24 hr 30:1 D41183 | T cell directed cytotoxicity EC50, HCT116 Luc 48 hr 10:1 D43905
2 | 179 EK-DART (P-CAD 179 x CD3-2) (bispecific antibody) chain 1: QSVLTQPPSVSAAPGQKVTISCSGSRSNIGNNYVSWYQQLPGTAPKLLIYDSNKRPSGIPDRFSGSKSGTSATLGITGLQTGDEADYYCGTWDSSLSSWVFGGGTKLTVLGGGSGGGGEVQLVESGGGLVQPGGSLRLSCAASGFTFNTYAMNWVRQAPGKGLEWVARIRSKYNNYATYYADSVKDRFTISRDDSKNSLYLQMNSLKTEDTAVYYCVRHGNFGNSYVSWFAYWGQGTLVTVSSGGCGGGKVAALKEKVAALKEKVAALKEKVAALKE chain 2: QAVVTQEPSLTVSPGGTVTLTCRSSTGAVTTSNYANWVQQKPGQAPRGLIGGTNKRAPWTPARFSGSLLGGKAALTITGAQAEDEADYYCALWYSNLWVFGGGTKLTVLGGGGSGGGGEVQLVQSGAEVKKPGASVKVSCKASGYTFTSYGISWVRQAPGQGLEWMGWISAYNGNTNYAQKLQGRVTMTTDTSTSTAYMELRSLRSDDTAVYYCATIDTANAFDIWGQGTMVTVSSGGCGGGEVAALEKEVAALEKEVAALEKEVAALEK | 17.8 pM | 43.2 pM
3 | 165 EK-DART (P-CAD 165 x CD3-2) (bispecific antibody) chain 1: QSVLTQPPSVSAAPGQKVTISCSGSSSNIGNNYVSWYQQLPGTAPKLLIYDNNKRPSGIPDRFSGSKSGTSATLGITGLQAGDEADYYCGTWDSSLSAYVFGTGTKVTVLGGGSGGGGEVQLVESGGGLVQPGGSLRLSCAASGFTFNTYAMNWVRQAPGKGLEWVARIRSKYNNYATYYADSVKDRFTISRDDSKNSLYLQMNSLKTEDTAVYYCVRHGNFGNSYVSWFAYWGQGTLVTVSSGGCGGGKVAALKEKVAALKEKVAALKEKVAALKE chain 2: QAVVTQEPSLTVSPGGTVTLTCRSSTGAVTTSNYANWVQQKPGQAPRGLIGGTNKRAPWTPARFSGSLLGGKAALTITGAQAEDEADYYCALWYSNLWVFGGGTKLTVLGGGGSGGGGEVQLVQSGAEVKKPGASVKVSCKASGYTFTSYGISWVRQAPGQGLEWMGWISAYNGNTNYAQKLQGRVTMTTDTSTSTAYMELRSLRSDDTAVYYCATIDTANAFDIWGQGTMVTVSSGGCGGGEVAALEKEVAALEKEVAALEKEVAALEK | 1.1 pM | 1.5 pM
4 | 178 EK-DART (P-CAD 178 x CD3-2) (bispecific antibody) chain 1: QSVLTQPPSVSAAPGQKVTISCSGSSSNIGNNYVSWYQQLPGTAPKLLIYDNNKRPSGIPDRFSGSKSGTSATLGITGLQTGDEADYYCGTWDSSLSAVVFGGGTKLTVLGGGSGGGGEVQLVESGGGLVQPGGSLRLSCAASGFTFNTYAMNWVRQAPGKGLEWVARIRSKYNNYATYYADSVKDRFTISRDDSKNSLYLQMNSLKTEDTAVYYCVRHGNFGNSYVSWFAYWGQGTLVTVSSGGCGGGKVAALKEKVAALKEKVAALKEKVAALKE chain 2: QAVVTQEPSLTVSPGGTVTLTCRSSTGAVTTSNYANWVQQKPGQAPRGLIGGTNKRAPWTPARFSGSLLGGKAALTITGAQAEDEADYYCALWYSNLWVFGGGTKLTVLGGGGSGGGGEVQLVQSGAEVKKPGASVKVSCKASGYTFTSYGISWVRQAPGQGLEWMGWISAYNGNTNYAQKLQGRVTMTTDTSTSTAYMELRSLRSDDTAVYYCATIDTANAFDIWGQGTMVTVSSGGCGGGEVAALEKEVAALEKEVAALEKEVAALEK | 0.8 pM | 1.8 pM
5 | 154 EK-DART (P-CAD 154 x CD3-2) (bispecific antibody) chain 1: QSVLTQPPSVSAAPGQKVTISCSGSSSNIGNNYVSWYQQLPGTAPKLLIYDNNKRPSGIPDRFSGSKSGTSATLGITGLQTGDEADYYCGTWDSSLSSYVFGTGTKVTVLGGGSGGGGEVQLVESGGGLVQPGGSLRLSCAASGFTFNTYAMNWVRQAPGKGLEWVARIRSKYNNYATYYADSVKDRFTISRDDSKNSLYLQMNSLKTEDTAVYYCVRHGNFGNSYVSWFAYWGQGTLVTVSSGGCGGGKVAALKEKVAALKEKVAALKEKVAALKE chain 2: QAVVTQEPSLTVSPGGTVTLTCRSSTGAVTTSNYANWVQQKPGQAPRGLIGGTNKRAPWTPARFSGSLLGGKAALTITGAQAEDEADYYCALWYSNLWVFGGGTKLTVLGGGGSGGGGEVQLVQSGAEVKKPGASVKVSCKASGYTFTSYGISWVRQAPGQGLEWMGWISAYNGNTNYAQKLQGRVTMTTDTSTSTAYMELRSLRSDDTAVYYCATIDTATAFDIWGQGTMVTVSSGGCGGGEVAALEKEVAALEKEVAALEKEVAALEK | 10.7 pM | 16.6 pM
6 | 177 EK-DART (P-CAD 177 x CD3-2) (bispecific antibody) chain 1: QSVLTQPPSVSAAPGQKVTISCSGSSSNIGNNYVSWYQQLPGTAPKLLIYDNNKRPSGIPDRFSGSKSGTSATLGITGLQTGDEADYYCGTWDSSLSAYVFGTGTKVTVLGGGSGGGGEVQLVESGGGLVQPGGSLRLSCAASGFTFNTYAMNWVRQAPGKGLEWVARIRSKYNNYATYYADSVKDRFTISRDDSKNSLYLQMNSLKTEDTAVYYCVRHGNFGNSYVSWFAYWGQGTLVTVSSGGCGGGKVAALKEKVAALKEKVAALKEKVAALKE chain 2: QAVVTQEPSLTVSPGGTVTLTCRSSTGAVTTSNYANWVQQKPGQAPRGLIGGTNKRAPWTPARFSGSLLGGKAALTITGAQAEDEADYYCALWYSNLWVFGGGTKLTVLGGGGSGGGGEVQLVQSGAEVKKPGASVKVSCKASGYTFTSYGISWVRQAPGQGLEWMGWISAYNGNTNYAQKLQGRVTMTTDTSTSTAYMELRSLRSDDTAVYYCATIDTANAFDIWGQGTMVTVSSGGCGGGEVAALEKEVAALEKEVAALEKEVAALEK | 1.1 pM | 0.7 pM
7 | 180 EK-DART (P-CAD 180 x CD3-2) (bispecific antibody) chain 1: QSVVTQPPSVSAAPGQKVTISCSGSSSNIGNNYVSWYQQLPGTAPKLLIYDNNKRPSGIPDRFSGSKSGTSATLGITGLQTGDEADYYCGTWDSSLSAYVFGTGTKVTVLGGGSGGGGEVQLVESGGGLVQPGGSLRLSCAASGFTFNTYAMNWVRQAPGKGLEWVARIRSKYNNYATYYADSVKDRFTISRDDSKNSLYLQMNSLKTEDTAVYYCVRHGNFGNSYVSWFAYWGQGTLVTVSSGGCGGGKVAALKEKVAALKEKVAALKEKVAALKE chain 2: QAVVTQEPSLTVSPGGTVTLTCRSSTGAVTTSNYANWVQQKPGQAPRGLIGGTNKRAPWTPARFSGSLLGGKAALTITGAQAEDEADYYCALWYSNLWVFGGGTKLTVLGGGGSGGGGEVQLVQSGAEVKKPGASVKVSCKASGYTFTSYGISWVRQAPGQGLEWMGWISAYNGNTNYAQKLQGRVTMTTDTSTSTAYMELRSLRSDDTAVYYCATIDTANAFDIWGQGTMVTVSSGGCGGGEVAALEKEVAALEKEVAALEKEVAALEK | 1.6 pM | 1.8 pM
